For 1 substance, stoichiometry N results are on record in paper doi:10.1101/112029.

For this assay, the target named is untagged murine saposin A (SapA), wild type (murine). The assay is described as follows: crystal structure.

One may read the stoichiometry N as the number of molecules, sites or subunits per partner or assembly. Take “untagged murine saposin A (SapA), wild type (natural protein)”: the stoichiometry N worked out at 2.
